Residue numbers refer to the chain shown, from its start.

For one assay, the target named is T1, IL-2 receptor (human, UniProt P01589 22-272; P14784 27-551; P31785 23-369).
T1 sequence (looked up) 1: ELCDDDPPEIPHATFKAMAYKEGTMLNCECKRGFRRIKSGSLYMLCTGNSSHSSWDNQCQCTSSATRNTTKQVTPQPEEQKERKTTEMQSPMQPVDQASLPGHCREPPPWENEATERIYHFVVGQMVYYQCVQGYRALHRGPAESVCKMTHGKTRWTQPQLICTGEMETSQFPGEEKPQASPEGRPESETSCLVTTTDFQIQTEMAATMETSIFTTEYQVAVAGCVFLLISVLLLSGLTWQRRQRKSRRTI
T1 sequence (looked up) 2: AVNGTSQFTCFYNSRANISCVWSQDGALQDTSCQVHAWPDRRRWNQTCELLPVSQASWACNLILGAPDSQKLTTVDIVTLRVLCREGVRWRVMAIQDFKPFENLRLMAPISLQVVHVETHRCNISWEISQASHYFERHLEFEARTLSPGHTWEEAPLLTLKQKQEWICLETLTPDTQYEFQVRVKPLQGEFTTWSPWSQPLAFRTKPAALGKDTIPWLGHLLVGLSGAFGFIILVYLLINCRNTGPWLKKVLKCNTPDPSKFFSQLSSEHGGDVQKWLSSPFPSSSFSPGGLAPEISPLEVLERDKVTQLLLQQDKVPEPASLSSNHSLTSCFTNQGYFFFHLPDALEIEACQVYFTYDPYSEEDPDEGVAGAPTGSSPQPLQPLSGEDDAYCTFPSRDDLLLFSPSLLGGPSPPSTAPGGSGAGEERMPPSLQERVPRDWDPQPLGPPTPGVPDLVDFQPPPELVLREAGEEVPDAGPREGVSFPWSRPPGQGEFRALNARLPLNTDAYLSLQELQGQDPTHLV
T1 sequence (looked up) 3: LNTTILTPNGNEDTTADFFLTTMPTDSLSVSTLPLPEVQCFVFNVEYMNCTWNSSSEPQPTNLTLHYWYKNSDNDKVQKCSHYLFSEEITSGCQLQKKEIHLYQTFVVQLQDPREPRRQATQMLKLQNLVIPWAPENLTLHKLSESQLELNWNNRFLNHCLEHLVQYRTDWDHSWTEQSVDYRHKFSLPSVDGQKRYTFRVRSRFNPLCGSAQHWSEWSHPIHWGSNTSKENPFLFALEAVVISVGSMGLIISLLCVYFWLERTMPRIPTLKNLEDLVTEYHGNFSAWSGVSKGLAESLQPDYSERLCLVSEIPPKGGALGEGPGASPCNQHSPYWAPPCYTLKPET
Nature of the assay: cell-based or functional assay.

Assay [1] has as its target T2, Cynomolgus monkey CD8a (cynomolgus monkey).
T2 construct: whole, on cells; On transfected HEK293F cells (full length) or natively on cynomolgus PBMC T cells; also called cynomolgus CD8a-FL; cynomolgus monkey CD8α
Put plainly: flow cytometry, cynomolgus PBMC, PI-CD3+CD4- gate. The procedure: (§1) Binding of four polypeptides comprising a humanized CD8a-binding VHH domain fused to an xELL fc region was assessed by flow cytometry on isolated human T cells and on isolated human or cynomolgus monkey peripheral blood mononuclear cells (PBMC). The isolated cells were plated in a 96-well plate at 200,000 cells per well for cynomolgus monkey PBMC, and 100,000 cells per well for human T cells in FACS buffer (PBS, 1% BSA, 0.1% NaN₃, pH 7.4). […] FACS buffer alone was used as a secondary antibody-only control. Polypeptide dilutions were added to an equal volume of cells, and assay plates were incubated for 30 minutes at 4° C. After washing twice with 150 μL of FACS buffer per well, the cells were resuspended in FACS buffer with a fluorescently labeled anti-human IgG antibody diluted 1:1000 to detect CD8α binding, fluorescently labeled anti-CD3 antibody (clone SP34.2, 1:50, for PBMC preparations only), and fluorescently labeled anti-CD4 antibody (clone OKT4, 1:100). Propidium iodide (PI) was added at 1:2000 to distinguish live cells from dead cells. Assay plates were incubated at 4° C. for 30 minutes. After one additional wash with 150 μL of FACS buffer CD8α binding was detected by flow cytometry on PI−(CD3+) CD4− cells. Binding was measured on these cell populations as mean fluorescence intensity (MFI) at 647 nm. Flow cytometric detection was performed on an ACEA Biosciences Novocyte-Quanteon Flow Cytometer. The data were plotted and analyzed using GraphPad Prism analysis software. The results are shown in Table 12 and 13 and in FIGS. 10A-D.

Another assay deals with T3, Human CD8a (human, UniProt P01732 22-235).
T3 construct: also called CD8α; human CD8a-FL
Put plainly: flow cytometry, isolated human T cells, PI-CD4- gate (table title says transfected HEK293F cells). The procedure:
Binding of polypeptides comprising a humanized CD8a-binding VHH domain, an Fc region, and, in certain polypeptides, a mutated, attenuated IL-2 fused to the C-terminus of the Fc region, was assessed by flow cytometry on isolated human T cells. […] Complexes or polypeptides that are not labeled “KiH” form homodimers under physiologic conditions. The isolated cells were plated in a 96-well plate at 50,000 cells per well in FACS buffer (PBS, 1% BSA, 0.1% NaN₃, pH 7.4). Test polypeptides were then diluted to 2× the final concentration of 200 nM, and a 5-fold serial dilution was made. FACS buffer with no polypeptide was used as a secondary antibody-only control. Test polypeptides were added to an equal volume of cells, and assay plates were incubated for 30 minutes at 4° C. After washing twice with 150 μL of FACS buffer per well, the cells were resuspended in FACS buffer with a fluorescently-labeled anti-human IgG antibody diluted 1:1000 to detect CD8α binding and fluorescently labeled anti-CD4 antibody (clone OKT4, 1:200). Propidium iodide (PI) was added at 1:2000 to distinguish live cells from dead cells. Assay plates were incubated at 4° C. for 30 minutes. After one additional wash with 150 μL of FACS buffer, polypeptide bound to CD8α was detected by flow cytometry on PI-CD4− and on PI-CD4+ cells. Binding was measured on these cell populations as mean fluorescence intensity (MFI) at 647 nm. Flow cytometric detection was performed on an ACEA Biosciences Novocyte-Quanteon Flow Cytometer. The data were plotted and analyzed using GraphPad Prism analysis software.

In assay [2] the target is T2, Cynomolgus monkey CD8a. Put plainly: flow cytometry on CD8 T cells (PI- CD3+ CD4-) within cynomolgus monkey PBMC, fluorescent anti-human IgG secondary, MFI at 647 nm. The procedure: as §1, with “Flow cytometric detection was performed on an ACEA Biosciences Novocyte-Quanteon Flow Cytometer.” left out, “The results are shown in Table 12 and 13 and in FIGS. 10A-D.” left out

T3 sequence (P01732 22-235): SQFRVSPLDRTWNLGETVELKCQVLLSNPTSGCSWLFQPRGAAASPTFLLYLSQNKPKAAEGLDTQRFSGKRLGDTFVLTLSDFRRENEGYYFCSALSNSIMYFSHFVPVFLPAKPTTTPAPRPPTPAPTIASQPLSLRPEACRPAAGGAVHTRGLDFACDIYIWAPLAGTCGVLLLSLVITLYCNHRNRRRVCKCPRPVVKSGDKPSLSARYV

B1: hzB7v31-xELL-KiH Fc-IL-2 mutant (Fc fusion)
chain 1: QVQLVQSGGGEVQPGGSLRLSCAASGFTFDDYAMSWVRQAPGKGLEWVSTITWDAGGTYYAAPVKGRFTISRDNAKNTVYLQMSSLRAEDTAVYYCAKGSPELQYDTWGQGTLVTVKPDKTHTCPPCPAPGGPSVFLFPPKPKDTLMISRTPEVTCVVVDVSHEDPEVKFNWYVDGVEVHNAKTKPREEQYNSTYRVVSVLTVLHQDWLNGKEYKCKVSNKALPAPIEKTISKAKGQPREPQVCTLPPSRDELTKNQVSLSCAVKGFYPSDIAVEWESNGQPENNYKTTPPVLDSDGSFFLVSKLTVDKSRWQQGNVFSCSVMHEALHNRYTQKSLSLSPGK
chain 2: QVQLVQSGGGEVQPGGSLRLSCAASGFTFDDYAMSWVRQAPGKGLEWVSTITWDAGGTYYAAPVKGRFTISRDNAKNTVYLQMSSLRAEDTAVYYCAKGSPELQYDTWGQGTLVTVKPDKTHTCPPCPAPGGPSVFLFPPKPKDTLMISRTPEVTCVVVDVSHEDPEVKFNWYVDGVEVHNAKTKPREEQYNSTYRVVSVLTVLHQDWLNGKEYKCKVSNKALPAPIEKTISKAKGQPREPQVYTLPPCRDELTKNQVSLWCLVKGFYPSDIAVEWESNGQPENNYKTTPPVLDSDGSFFLYSKLTVDKSRWQQGNVFSCSVMHEALHNHYTQKSLSLSPG
B1: the “EC50 of pSTAT5 induction in human CD8 T cells” value with IL-2 receptor is less than 30 pM.

B2: hzB7v29-xELL-Fc (Fc fusion)
chain: B1 chain 1 with G56E, C244Y, S261T, A263L, V302Y, R330H
notes: Homodimeric VHH-human IgG1 Fc xELL fusion
The molecule B2 gave a Kd with Cynomolgus monkey CD8a [1] of 31.7 pM.

B3: hzB7v35-xELL-Fc (Fc fusion)
chain: B1 chain 1 with Q13K, G56E, C244Y, S261T, A263L, V302Y, R330H
notes: as for B2
With B3, the Kd in the assay with Cynomolgus monkey CD8a [1] is 23.6 pM.

B4: hzB7v39-xELL-KiH Fc-IL-2 mutant (Fc fusion)
chain 1: B1 chain 1 with Q13K, D54S, G56E
chain 2: B1 chain 2 with Q13K, D54S, G56E
notes: Knob-in-hole heterodimer: VHH on the N-terminus of each Fc, mutant IL-2 only on the knob Fc; not shown: mutant, attenuated IL-2 fused to the C-terminus of the knob Fc
B4 showed a Kd with Human CD8a of 148 pM.

B5: hzB7v31-xELL-Fc (Fc fusion)
chain: B1 chain 1 with C244Y, S261T, A263L, V302Y, R330H
notes: Homodimeric VHH-human IgG1 Fc xELL fusion; also called CD8a-hzB7v31-Fc-xELL
As to B5, the “EC50 (read off the curve)” value in the assay with Cynomolgus monkey CD8a [2] was approximately 50 pM. The molecule further displayed a Kd with Cynomolgus monkey CD8a [1] of 38.9 pM.

B6: hzB7v41-xELL-Fc (Fc fusion)
chain: B1 chain 1 with K117R, C244Y, S261T, A263L, V302Y, R330H
notes: as for B2
B6 displayed a Kd in the assay with Cynomolgus monkey CD8a [1] of 49.9 pM.
